Data: article PMC8300647, “Effects of Serine or Threonine in the Active Site of Typical 2-Cys Prx on Hyperoxidation Susceptibility and on Chaperone Activity” (Antioxidants, 2021)

Assays:
[1] = molecular target: the molecule itself; assay: SEC; reduced samples: 30 uM protein treated with 5 mM TCEP, excess removed by PD10; Phenomenex BioSep-SEC-S2000, 100 mM Tris-HCl pH 7.4, 1 mL/min, absorbance at 280 nm; self-association (decamer, dimer)
[2] = molecular target: the molecule itself; assay: SEC; oxidized samples (disulfide): reduced 30 uM protein treated with 36 uM H2O2 for 30 min at room temperature; Phenomenex BioSep-SEC-S2000, 100 mM Tris-HCl pH 7.4, 1 mL/min, absorbance at 280 nm; self-association (decamer, dimer)

| Protein | stoichiometry N [1] | stoichiometry N [2] |
| --- | --- | --- |
| AhpC from Pseudomonas aeruginosa (enzyme, UniProt Q9I6Z3 1-187, looked up, The forward primer carries the ATG of the Nde I site followed by the gene's own ATG, so one more Met may precede the natural start; The strain that was amplified (ATCC29853) is not the strain of the genome used for the primers; also called PaAhpC; ahpc (Pa); source: E. coli BL21 (DE3), pET15b, purified (IMAC HisTrap, PD10 desalting)) MSLINTQVQPFKVNAFHNGKFIEVTEESLKGKWSVLIFMPAAFTFNCPTEIEDAANNYGEFQKAGAEVYIVTTDTHFSHKVWHETSPAVGKAQFPLIGDPTHQLTNAFGVHIPEEGLALRGTFVINPEGVIKTVEIHSNEIARDVGETVRKLKAAQYTAAHPGEVCPAKWKEGEKTLAPSLDLVGKI | 10 | 2 |
| PaAhpC^T44S (enzyme, AhpC of Pseudomonas aeruginosa with the catalytic triad Thr changed to Ser; printed as T44S in the SEC text and legend and as T43S in the primers' names and other legends (one mutant; mutagenic primer encodes AAFSFNC); Made by site directed mutagenesis (Quick Change II) of the pET15b-ahpc (Pa) plasmid; also called PaAhpC^T43S; source: E. coli BL21 (DE3), pET15b, purified (IMAC HisTrap, …)) MSLINTQVQPFKVNAFHNGKFIEVTEESLKGKWSVLIFMPAAFSFNCPTEIEDAANNYGEFQKAGAEVYIVTTDTHFSHKVWHETSPAVGKAQFPLIGDPTHQLTNAFGVHIPEEGLALRGTFVINPEGVIKTVEIHSNEIARDVGETVRKLKAAQYTAAHPGEVCPAKWKEGEKTLAPSLDLVGKI | 10 |  |
